These results are taken from patent US20090053227A1.

The test concerns the target Kv3.2a (potassium channel Kv3.2a, KCNC2 transcript variant 1) (human) (UniProt Q96PR1). As to the kind of experiment: flow cytometry on unpermeabilized Kv3.2a-CHO 1A5 cells.
UniProt Q96PR1, sequence (Q96PR1 other isoform, or with tags, fused parts or gaps mutant): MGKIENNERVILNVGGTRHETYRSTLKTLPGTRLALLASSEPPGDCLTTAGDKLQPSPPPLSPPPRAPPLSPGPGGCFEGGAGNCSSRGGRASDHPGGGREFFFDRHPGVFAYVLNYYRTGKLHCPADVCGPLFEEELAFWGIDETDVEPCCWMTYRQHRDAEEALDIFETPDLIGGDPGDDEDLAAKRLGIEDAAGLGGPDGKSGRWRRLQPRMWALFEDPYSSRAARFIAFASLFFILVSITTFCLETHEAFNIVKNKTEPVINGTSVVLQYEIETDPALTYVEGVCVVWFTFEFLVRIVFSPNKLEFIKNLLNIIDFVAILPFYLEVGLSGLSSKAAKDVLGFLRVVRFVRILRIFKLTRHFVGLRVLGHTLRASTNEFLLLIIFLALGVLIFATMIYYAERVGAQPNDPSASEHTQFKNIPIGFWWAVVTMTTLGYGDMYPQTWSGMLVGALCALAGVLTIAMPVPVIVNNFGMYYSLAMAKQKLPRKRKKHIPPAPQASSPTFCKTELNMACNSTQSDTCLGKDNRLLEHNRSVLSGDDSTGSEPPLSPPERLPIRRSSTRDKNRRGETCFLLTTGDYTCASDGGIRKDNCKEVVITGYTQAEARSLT

Turning to Neg control, the percentage shift into gate worked out at 0.01%.
